Reference: US20220242937A1 (CHANGCHUN GENESCIENCE PHARMACEUTICAL, published 2022)
Where a chain is given by its changes, count along the chain named.

B1: 066-4.26.14 (antibody, V domains shown)
VH: EVKLVESGGGLVKPGGSLKLSCAASGFTFRSYAMSWVRQTPEKRLEWVASISTTSNTYYPDSVKGRFTTSRDNARNIVYLQMSSLRSDDTAMYYCGRGVITNQAWFAYWGQGTLVTVSA
VL: DIVLTQSPATLSVTPGDSVSLSCRASQSISNNLHWYQQKSHESPRLLIKYASQSISGIPSRFSGSGSGTDFTLSVNNVGTEDFGMYFCQQSNSWPLTFGAGTKLELK
B2: 066-4.26.14H2L3 (antibody, V domains shown)
VH: B1 VH with K3Q, K19R, R75K, I77S, S87A, D88E, M92V, L114T, A119S
VL: DIVLTQSPDFQSVTPKEKVTISCRASQSISNNLHWYQQKPDQSPKLLIKYASQSISGIPSRFSGSGSGTDFTLTINSLEAEDAAAYFCQQSNSWPLTFGPGTKVEIK
B3: mouse-human chimeric antibody 066-4.26.14-chAb (antibody, human IgG1, kappa, V domains shown)
VH: B1 VH
VL: DIVLTQSPATLSVTPGDSVSLSCRASQSISNNLHWYQQKSHESPRLLIKYASQSISGIPSRFSGSGSGTDFTLSVNNVGTEDFGMYFCQQSNSWPLTFGAGTKLELKR
B4: 066-4.26.14H5L3 (antibody, V domains shown)
VH: EVQLVESGGGLVQPGGSLRLSCVASGFTFRSYAMSWVRQAPGKGLEWVASISTTSNTYYPDSVKGRFTTSRDNSKNTVYLQMSSLRAEDTAVYYCGRGVITNQAWFAYWGQGTLVTVSS
VL: B2 VL
B5: 066-4.26.14H5L2 (antibody, V domains shown)
VH: B4 VH
VL: DIVLTQSPATLSVSPGERATLSCRASQSISNNLHWYQQKPGQAPRLLIKYASQSISGIPARFSGSGSGTDFTLTISSLQSEDFAVYFCQQSNSWPLTFGGGTKVEIK
B6: 066-4.26.14H2L2 (antibody, V domains shown)
VH: B4 VH with Q13K, V23A, A40T, G42E, G44R, S74A, T77S, L114T
VL: B5 VL
B7: 066-4.26.14H5L1 (antibody, V domains shown)
VH: B4 VH
VL: B5 VL with A19V, P40S, A60S, K103Q
B8: 066-4.26.14H4L2 (antibody, V domains shown)
VH: B4 VH with V23A, S74A, T77S, A87D, V92M, T113I
VL: B5 VL

molecular target: human Aβ antigen (human); experiment: cell-based or functional assay
Sequence (peptide, as listed by the source): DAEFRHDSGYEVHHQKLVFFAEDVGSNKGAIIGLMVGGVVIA

In order of rising “relative fluorescence intensity (ThT, Aβ polymerization; hIgG = 1.00)” value:
1. B6  0.62
2. B2  0.67
3. B5  0.67
4. B7  0.68
5. B1  0.7
6. B8  0.7
7. B3  0.71
8. B4  0.78

In order of falling “relative value of LDH release (SHSY5Y cells with Aβ; hIgG = 1.00)” value:
1. B2  1.42
2. B4  1.41
3. B6  1.41
4. B7  1.37
5. B3  1.32
6. B8  1.3
7. B5  1.26
8. B1  1.2
